One assay has as its target T1, huIL-27 (Homo sapiens, UniProt Q14213+Q8NEV9).
T1 sequence (Q14213 21-229): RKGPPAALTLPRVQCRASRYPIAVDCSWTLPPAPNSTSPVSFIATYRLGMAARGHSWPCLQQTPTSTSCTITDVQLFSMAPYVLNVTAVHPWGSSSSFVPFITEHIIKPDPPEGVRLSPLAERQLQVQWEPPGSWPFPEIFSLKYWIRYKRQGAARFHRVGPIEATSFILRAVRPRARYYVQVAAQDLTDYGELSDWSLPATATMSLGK
T1 sequence (Q8NEV9 29-243): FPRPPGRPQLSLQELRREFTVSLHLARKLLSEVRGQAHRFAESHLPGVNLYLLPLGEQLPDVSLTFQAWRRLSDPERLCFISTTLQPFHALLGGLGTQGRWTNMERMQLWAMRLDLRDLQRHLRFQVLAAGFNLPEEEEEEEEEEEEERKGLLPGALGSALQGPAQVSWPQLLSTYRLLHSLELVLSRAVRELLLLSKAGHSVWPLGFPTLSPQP
The experiment in a line: Phospho-STAT3 neutralization assay, total human PBMCs, huIL-27. The assay is classed as cell-based. The note with it: Total Human PBMCs; ligand huIL-27 at EC90. The source says: Whole mouse spleens were harvested from C57 B1/6 mice and washed two times with 1×PBS before being plated out at 2×10^5 cells/well in assay media (RPMI 1640 plus 10% fetal bovine serum) in 96-well, round-bottom tissue culture plates. Total human PBMC (peripheral blood mononuclear cells) were thawed from a frozen vial collected from a leukapherisis donation and washed two times with 1×PBS before being plated out at 10^6 cells/well in assay media in 96-well, round-bottom tissue culture plates. […] Following pre-incubation, treatments were added to the plates containing the cells and incubated together at 37° C. for 15 minutes.
Following incubation, cells were washed with ice-cold wash buffer (BIO-PLEX Cell Lysis Kit, BIO-RAD Laboratories, Hercules, Calif.) and put on ice to stop the reaction according to manufacturer's instructions. […]
Capture beads (BIO-PLEX Phospho-Stat3 Assay, BIO-RAD Laboratories) were combined with 50 μL of 1:1 diluted lysates and added to a 96-well filter plate according to manufacture's instructions (BIO-PLEX Phosphoprotein Detection Kit, BIO-RAD Laboratories). […] After the final wash, beads were resuspended in 125 μL/well of bead suspension buffer, shaken for 30 seconds, and read on an array reader (BIO-PLEX, BIO-RAD Laboratories) according to the manufacture's instructions. Data were analyzed using analytical softward (BIO-PLEX MANAGER 3.0, BIO-RAD Laboratories). […]

For a further assay, the system named is P815 cells. The experiment in a line: CTL-specific lysis assay with splenocytes of GVHD mice. Type of assay: cell-based, mouse. The note with it: splenocytes of treated animals versus PBS; calcein-labeled P815 targets. The procedure: Efficacy of IL-27 antagonists was assayed in a mouse model of acute graft-vs-host disease (Durie et al., J. Clin. Invest. 94:1333-1338, 1994). Parental mice (C57BL/6; n=12) were euthanized, and their spleens were collected. The pooled spleens were smashed using two glass slides to dissociate splenic cells. Lysis buffer was added to the splenocyte suspension to remove red blood cells. The cells were washed in RPMI 1640 (10% FBS) medium and resuspended in an appropriate amount of PBS to make a cell concentration of 300 million cells/ml. Protein treatments were administered by intraperitoneal injection every other day beginning on day-1 and continuing until day 15. Dexamethasone (DEX) was administered by injection daily on days 0 through 6. […] Mice were monitored 3 times a week for changes in body weight and any signs of moribundity. […] Spleens were collected, and a CTL-specific lysis assay using P815 cells was performed as a quantitative measurement of acute GVHD. […]
For CTL assay, P815 cells (a tumor cell line from mice with the same MHC class as DBA2) were labeled with calcein, then splenocytes from each experimental animal were added to the calcein-labeled P815 cells at effector (splenocytes):target (P815) ratios of 100:1, 33:1, and 10:1. Four hours after incubation at 37° C., supernatants were collected and fluorescence was measured (485 nm/535 nm).

Regarding “human IL-27RA-Fc5: human IL27RA extracellular domain (amino acids 1 to 512 of SEQ ID NO:5) fused to Fc5, effector minus human gamma1 Fc; SEQ ID NO:3”, the IC50 (in general, the concentration that inhibits the measured activity by half) in the assay with huIL-27 stood at 0.95 nM. For the same substance, the CTL activity result with P815 cells is on record as “reduced CTL activity compared to PBS”.
